Consider five molecules from US20090203610A1, “METHODS OF TREATING OBESITY OR DIABETES USING NT-4/5” (RINAT NEUROSCIENCE CORPORATION, priority 2004, published 2009).

Residue numbers refer to the chain shown, from its start. In names and notes the source's numbering stands.

The target in one experiment is T1, p75NTR (Homo sapiens, UniProt P08138).
T1 sequence (P08138 29-427): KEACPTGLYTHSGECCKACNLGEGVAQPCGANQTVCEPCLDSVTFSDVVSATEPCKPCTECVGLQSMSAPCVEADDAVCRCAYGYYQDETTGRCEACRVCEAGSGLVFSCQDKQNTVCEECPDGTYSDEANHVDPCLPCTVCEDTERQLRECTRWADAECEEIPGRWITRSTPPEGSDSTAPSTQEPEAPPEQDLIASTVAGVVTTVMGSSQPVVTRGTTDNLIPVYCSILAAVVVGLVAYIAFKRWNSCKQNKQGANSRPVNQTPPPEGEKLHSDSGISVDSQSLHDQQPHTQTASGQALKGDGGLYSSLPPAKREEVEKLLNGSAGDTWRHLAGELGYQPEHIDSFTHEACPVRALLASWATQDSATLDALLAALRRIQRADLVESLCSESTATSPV
To be noted: low affinity receptor (LNGFR, p75NTR); cited from earlier work.

A further experiment addresses T2, human TrkC (Homo sapiens, UniProt Q16288).
T2 construct: expressed in transfected cells
The experiment in a line: Receptor tyrosine phosphorylation in trkC expressing cell line. The experiment is classed as cell-based. From the text:
(§1) Assays of TrkB specific activation by pegylated NT-4/5: Stable cell lines expressing human TrkA, TrkB or TrkC were used to determine the functional activity, i.e. receptor phosphorylation, of NT-4/5 and pegylated NT-4/5 as previously described (Sadick et al. Experimental Cell Research 234: 354-361, 1997).
(§2) Assays of TrkB specific activation by pegylated NT-4/5: Stable cell lines expressing human TrkA, TrkB or TrkC were used to determine the functional activity, i.e. receptor phosphorylation, of NT-4/5 and different forms of pegylated NT-4/5 as previously described (Sadick et al. Experimental Cell Research 234: 354-361, 1997).

Experiment [1] has as its system DIO mice. Kind of experiment: NT-4/5 versus BDNF on body weight and food intake of DIO mice (Example 10). To be noted: 2 mg/kg i.v. The experiment is classed as in vivo. From the text: Test animals: Mice with diet induced obesity (DIO) were used in this study. 22 male C57BL/6J mice were weaned at 4 weeks of age. Immediately after weaning they were put on 58% high fat diet (D12331i, Research Diet) through out the study. The DIO mice at 13 weeks of age weighing in the range of 28-40 g were used in this study.
Administration of NT-4/5 and BDNF: NT-4/5 was produced was produced as described in U.S. Pat. No. 6,184,360. The recombinant human BDNF was obtained from PeproTech Inc. (Rocky Hill, N.J.).
The mice were divided into 3 groups of equivalent body weight distribution (7-8 mice per group). Each group received 2 weekly intravenous doses of either vehicle, 2 mg/kg of NT-4/5 or 2 mg/kg of BDNF, respectively. Body weight and food intake were taken the day before treatment started (day 0) and followed subsequently on a daily basis.

Experiment [2] deals with NONcNZO-10 polygenic obese mice. The experiment in a line: Pegylated NT-4/5 cysteine mutant on body weight, food intake, glucose, triglyceride in NONcNZO-10 mice (Example 6). The class given is in vivo. To be noted: single subcutaneous injection of 1 mg/kg. On the procedure:
Test animals: 30 male NONcNZO-10 polygenic obese mice at 10 weeks of age weighing in the range of 27-32 g were used in this study.
Administration of NT-4/5 and pegylated NT-4/5: The mice were divided into 4 groups of equivalent body weight distribution (7-8 mice per group). Each group received on the first day (day 1) of the study one and the only dose of either vehicle alone, 1 mg/kg of NT-4/5 or 1 mg/kg of PEG-NT4-S50C, respectively. A final group received a daily subcutaneous dose of 1 mg/kg of NT-4/5 from day 1 to day 5, then from day 7 to day 9. On day 9 after the treatment started, blood samples were collected to determine serum glucose and triglyceride levels. Body weight and food intake were monitored 5 days a week through out the entire study.

In another experiment the target is T3, human TrkA (Homo sapiens, UniProt P04629).
T3 construct: expressed in transfected cells
T3 sequence (P04629 33-796): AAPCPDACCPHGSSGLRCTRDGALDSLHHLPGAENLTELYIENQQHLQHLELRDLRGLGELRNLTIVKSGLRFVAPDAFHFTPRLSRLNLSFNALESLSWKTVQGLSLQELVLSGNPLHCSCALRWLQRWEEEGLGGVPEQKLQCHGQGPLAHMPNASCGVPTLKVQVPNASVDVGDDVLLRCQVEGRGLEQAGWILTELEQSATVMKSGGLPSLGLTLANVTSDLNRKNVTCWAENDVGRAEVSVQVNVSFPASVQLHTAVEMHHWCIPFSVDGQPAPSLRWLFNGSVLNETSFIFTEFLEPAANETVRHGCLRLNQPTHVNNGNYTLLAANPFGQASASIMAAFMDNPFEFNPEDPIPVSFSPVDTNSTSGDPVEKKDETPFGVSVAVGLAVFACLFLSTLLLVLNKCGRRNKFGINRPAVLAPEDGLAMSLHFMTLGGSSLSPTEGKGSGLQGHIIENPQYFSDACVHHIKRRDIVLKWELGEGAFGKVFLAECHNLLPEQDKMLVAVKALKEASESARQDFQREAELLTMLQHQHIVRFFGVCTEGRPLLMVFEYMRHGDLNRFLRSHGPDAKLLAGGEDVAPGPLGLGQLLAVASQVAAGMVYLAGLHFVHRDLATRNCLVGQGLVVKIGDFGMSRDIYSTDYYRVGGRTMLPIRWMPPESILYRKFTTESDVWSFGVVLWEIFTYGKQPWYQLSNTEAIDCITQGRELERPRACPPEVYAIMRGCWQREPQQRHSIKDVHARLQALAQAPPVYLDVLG
The experiment in a line: Receptor tyrosine phosphorylation in trkA expressing cell line. The class given is cell-based.
Description: as §1, §2

The next experiment deals with T4, human TrkB (Homo sapiens, UniProt Q16620).
T4 construct: expressed in transfected cells
T4 sequence (Q16620 32-822): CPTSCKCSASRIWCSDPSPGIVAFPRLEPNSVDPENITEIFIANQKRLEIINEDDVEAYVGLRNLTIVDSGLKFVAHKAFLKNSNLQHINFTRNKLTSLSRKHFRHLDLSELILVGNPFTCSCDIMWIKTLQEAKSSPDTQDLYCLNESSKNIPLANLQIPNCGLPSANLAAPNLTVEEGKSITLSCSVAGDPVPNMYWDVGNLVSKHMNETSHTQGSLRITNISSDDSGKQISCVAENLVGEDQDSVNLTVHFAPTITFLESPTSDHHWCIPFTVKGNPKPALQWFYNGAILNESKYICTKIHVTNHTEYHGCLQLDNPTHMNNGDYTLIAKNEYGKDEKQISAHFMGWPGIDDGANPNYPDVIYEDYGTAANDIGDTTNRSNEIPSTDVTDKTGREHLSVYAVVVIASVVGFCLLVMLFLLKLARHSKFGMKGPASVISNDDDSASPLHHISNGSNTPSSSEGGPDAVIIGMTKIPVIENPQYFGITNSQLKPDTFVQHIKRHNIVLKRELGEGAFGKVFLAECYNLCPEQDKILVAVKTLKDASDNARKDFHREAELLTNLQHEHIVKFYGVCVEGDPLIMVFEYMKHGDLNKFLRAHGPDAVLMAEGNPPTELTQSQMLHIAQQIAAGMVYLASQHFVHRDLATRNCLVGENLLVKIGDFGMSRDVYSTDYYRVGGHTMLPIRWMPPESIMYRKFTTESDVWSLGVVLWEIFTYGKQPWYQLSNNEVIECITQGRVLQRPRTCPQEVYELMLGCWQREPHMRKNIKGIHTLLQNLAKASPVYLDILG
The experiment in a line: Receptor tyrosine phosphorylation (KIRA) in TrkB expressing cell line. The class given is cell-based.
Description: Method of making pegylated NT-4/5 (S50C): The native form of NT-4/5 used in this study was produced according to the method described in U.S. Pat. No. 6,184,360. A site-directed pegylated NT-4/5 was also produced. The structure of NT-4/5 in complex with domain 5 of TrkB was examined to find amino acid side chains that would be surface available and unlikely to interfere with natural disulfide bonds and also unlikely to interfere in either the interactions between the monomer subunits of NT-4/5 or the TrkB domain 5 to create a PEG attaching site. […] […] Mutant proteins were expressed in E. coli, solubilized, extracted, purified and refolded as the native NT-4/5. To pegylate the refolded NT4-S50C, NT4-Q105C, and NT-4-E67C, first a mild reduction with 0.1 mM DTT (dithiothreitol) was performed. Excess DTT was removed by dialysis against 50 mM sodium acetate at pH 6, then a 5 molar excess of mPEG-maleimide (M. W. of 10,000 Da, SunBio, Inc., South Korea) was incubated with the protein at 37° C. for several days with gentle agitation. Pegylated protein, non-pegylated protein and unreacted PEG were separated via ion exchange or size exclusion chromatography.
as §1, §2

Experiment [3] relates to DIO mice. Kind of experiment: Weekly intravenous pegylated G1S NT-4/5 versus WT NT-4/5 on body weight and food intake in DIO mice (Example 8). The experiment is classed as in vivo. From the text: Test animals: Mice with diet induced obesity (DIO) were used in this study. 29 male C57BL/6J mice were weaned at 4 weeks of age. Immediately after weaning, they were put on 58% high fat diet (D12331i, Research Diet) through out the study. The DIO mice at 13 weeks of age weighing in the range of 28-40 g were used in this study.
Administration of NT-4/5 and pegylated NT-4/5: NT-4/5 was obtained from Genentech Inc. or produced as described in U.S. Pat. No. 6,184,360. Pegylated NT-4/5 was produced as follows: A mutation was introduced by changing the glycine 1 position of mature human NT-4/5 sequence to serine, resulting in a mutant form of NT-4/5 (NT4-G1S). NT4-G1S protein was expressed in E. coli, solubilized, extracted, purified and refolded as described above. Refolded NT4-G1S was dialyzed into 50 mM sodium phosphate buffer at pH 6.8 and treated with 1.5 molar excess sodium meta-periodate for 10 minutes to oxidize the N-terminal serine (or threonine) residue to an aldehyde. Remaining periodate was removed by dialysis against 30 mM sodium acetate at pH 4.5. The exact concentration of NT4-G1S was determined and a 2 to 4 fold molar excess of 20K-m-PEG-HZ (methoxy polyethylene glycol hydrazide) was added. The reaction was incubated at 37° C. for several days with gentle agitation. Unconjugated PEG, pegylated NT4-G1S and non-pegylated NT4-G1S were separated via ion exchange or size exclusion chromatography.
The mice were divided into 3 groups of equivalent body weight and baseline blood glucose distribution (7-8 mice per group). Each group received four weekly intravenous doses (on day 1, 8, 15 and 22) of either vehicle, 2 mg/kg of NT-4/5 or 2 mg/kg of pegylated G1S NT-4/5 respectively. Body weight and food intake were monitored 5 days per week through out the entire study.

T2 sequence (Q16288 32-839): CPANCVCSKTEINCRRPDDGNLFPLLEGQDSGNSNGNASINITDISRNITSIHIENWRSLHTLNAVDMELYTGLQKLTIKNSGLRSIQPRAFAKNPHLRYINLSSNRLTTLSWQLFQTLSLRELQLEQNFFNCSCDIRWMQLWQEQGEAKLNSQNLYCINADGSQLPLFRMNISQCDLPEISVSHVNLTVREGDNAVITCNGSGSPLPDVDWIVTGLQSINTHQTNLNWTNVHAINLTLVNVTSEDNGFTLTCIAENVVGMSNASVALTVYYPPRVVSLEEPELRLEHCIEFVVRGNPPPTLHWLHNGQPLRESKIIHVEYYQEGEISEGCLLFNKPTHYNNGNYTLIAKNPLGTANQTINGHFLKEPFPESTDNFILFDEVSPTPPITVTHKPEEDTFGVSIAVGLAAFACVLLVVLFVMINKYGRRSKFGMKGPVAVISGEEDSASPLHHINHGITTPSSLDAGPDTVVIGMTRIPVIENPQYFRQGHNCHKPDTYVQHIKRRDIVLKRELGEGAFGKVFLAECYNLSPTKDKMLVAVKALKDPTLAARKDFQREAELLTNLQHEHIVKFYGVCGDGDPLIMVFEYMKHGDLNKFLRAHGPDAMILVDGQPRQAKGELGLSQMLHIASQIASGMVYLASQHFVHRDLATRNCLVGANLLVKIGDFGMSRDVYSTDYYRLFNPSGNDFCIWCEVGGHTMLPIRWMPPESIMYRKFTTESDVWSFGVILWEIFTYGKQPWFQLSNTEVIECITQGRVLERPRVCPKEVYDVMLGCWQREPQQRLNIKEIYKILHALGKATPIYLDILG

Consider “NGF: nerve growth factor, control [reference compound]”, for which the Kd in the experiment with p75NTR is 2 nM.

“NT-3: neurotrophin-3, control activating trkC expressing cells [reference compound]”: the Kd with p75NTR is 2 nM. The “receptor tyrosine phosphorylation of trkC-expressing cell line” value with human TrkC is on record as “activated trkC expressing cells”.

B1: BDNF: recombinant human brain-derived neurotrophic factor from PeproTech Inc. (protein, UniProt P23560 19-247, looked up)
Neurotrophic factor BDNF …: APMKEANIRGQGGLAYPGVRTHGTLESVNGPKAGSRGLTSLADTFEHVIEELLDEDQKVRPNEENNKDADLYTSRVMLSSQVPLEPPLLFLLEEYKNYLDAANMSMRVRRHSDPARRGELSVCDSISEWVTAADKKTAVDMSGGTVTVLEKVPVSKGQLKQYFYETKCNPMGYTKEGCRGIDKRHWNSQCRTTQSYVRALTMDSKKRIGWRFIRIDTSCVCTLTIKRGR
As to B1, the Kd with p75NTR is 2 nM. Moreover, in the experiment with DIO mice [1], the “body weight on day 2” value is “did not significantly reduce body weigh” and the “food intake on day 2” value is “did not significantly reduce food intake”.

B2: PEG-NT4-S50C: human NT-4/5 with serine 50 changed to cysteine, pegylated with mPEG-maleimide (10,000 Da) (conjugate)
chain: GVSETAPASRRGELAVCDAVSGWVTDRRTAVDLRGREVEVLGEVPAAGGCPLRQYFFETRCKADNAEEGGPGAGGGGCRGVDRRHWVSECKAKQSYVRALTADAQGRVGWRWIRIDTACVCTLLSRTGRA
Turning to B2, in experiment [2], the “body weight” value is “significantly reduced” and the “food intake” value was “significantly reduced”. In experiment [2] (day 9), the “blood glucose level” value was “did not significantly reduce” and the “triglyceride level” value is on record as “did not significantly reduce”. Further, the “receptor tyrosine phosphorylation of trkC-expressing cell line” value with human TrkC is on record as “did not increase receptor tyrosine phosphorylation”. Besides, the “receptor tyrosine phosphorylation of trkA-expressing cell line” value in the experiment with human TrkA is recorded as “did not increase receptor tyrosine phosphorylation”. Moreover, the “receptor tyrosine phosphorylation of TrkB-expressing cell line” value with human TrkB is reported as “increased receptor tyrosine phosphorylation”.

B3: pegylated G1S NT-4/5: NT4-G1S (glycine 1 to serine) pegylated with 20K-m-PEG-HZ; 1PEG or 2PEG form not stated (conjugate, UniProt P34130 81-210, looked up, variant G1S)
Neurotrophin-4: B2 chain with G1S, C50S
modifications: 20K-m-PEG-HZ
On to B3, for which, in the experiment with DIO mice [3] (2 mg/kg i.v.), the “body weight after the first single dose” value is listed as “more effective in reducing body weight” and the “food intake after the first single dose” value is reported as “more effective in reducing food intake than WT NT-4/5”. For the same molecule, in the experiment with DIO mice [3] (2 mg/kg i.v. on day 1, 8, 15, 22, Bonferroni posttests), the “body weight, pairwise difference with the vehicle control group” value was “significant pairwise differences”. The “time to body weight recovery after each weekly dosing” value with DIO mice [3] (2 mg/kg i.v. weekly) lay within 3 to 4 days.
